Experimental data reported in PMC3320582, “Group A Streptococcus Secreted Esterase Hydrolyzes Platelet-Activating Factor to Impede Neutrophil Recruitment and Facilitate Innate Immune Evasion” (PLoS Pathogens, 2012).

Substrate: [H][C@@](COCCCCCCCCCCCCCCCC)(COP(=O)([O-])OCC[N+](C)(C)C)SC(C)=O
Assay: purified protein
Assay type: biochemical, Homo sapiens
Conditions: PAF acetylhydrolase assay kit; measured as comparison to SsE

B1: human recombinant plasma PAF acetylhydrolase (Homo sapiens) (protein)
chain: FDWQYINPVAHMKSSAWVNKIQVLMAAASFGQTKIPRGNGPYSVGCTDLMFDHTNKGTFLRLYYPSQDNDRLDTLWIPNKEYFWGLSKFLGTHWLMGNILRLLFGSMTTPANWNSPLRPGEKYPLVVFSHGLGAFRTLYSAIGIDLASHGFIVAAVEHRDRSASATYYFKDQSAAEIGDKSWLYLRTLKQEEETHIRNEQVRQRAKECSQALSLILDIDHGKPVKNALDLKFDMEQLKDSIDREKIAVIGHSFGGATVIQTLSEDQRFRCGIALDAWMFPLGDEVYSRIPQPLFFINSEYFQYPANIIKMKKCYSPDKERKMITIRGSVHQNFADFTFATGKIIGHMLKLKGDIDSNVAIDLSNKASLAFLQKHLGLHKDFDQWDCLIEGDDENLIPGTNINTTNQHIMLQNSSGIEKYN
notes: commercial recombinant protein (Cayman Chemical)
Km: 8.0 µM | kcat: 15.4 s⁻¹
